For 4 substances, percentage of fluorescent cells in BiFC results are on record in PMC11998489.

What all share (assay): split reporter (BiFC, NanoBiT); mCherry BiFC (Nm and Cm fusions) in Sf9 cells transfected with a pair of plasmids (2 ug/well each); 36 h p.t.; epifluorescence microscopy; percentage of fluorescent cells in each field
Experiment [1] has as its target Hse1 (BiFC fusion) (S. frugiperda).
Experiment [2] concerns the target Vps36 (BiFC fusion) (S. frugiperda).
Experiment [3] has as its target Vps25 (BiFC fusion) (S. frugiperda).
Experiment [4] addresses Vps27 (BiFC fusion) (S. frugiperda).

Consider Chm7 (BiFC fusion) (natural protein), for which, in experiment [1], the percentage of fluorescent cells in BiFC was found to be 5%. The same measure, in the same setting: with Vps2B (BiFC fusion) (natural protein) the figure was 5%. As to Vps28 (BiFC fusion) (natural protein), in experiment [2], the percentage of fluorescent cells in BiFC worked out at 5%.

On to Tsg101 (BiFC fusion) (natural protein), for which the percentage of fluorescent cells in BiFC in experiment [3] and in experiment [4] was 5% throughout.
